We go through ten substances from paper PMC11261597, “Three-Step Enzymatic Remodeling of Chitin into Bioactive Chitooligomers” (Journal of Agricultural and Food Chemistry, 2024).

For the data set, the system named is T1, CC(=O)N[C@H]1[C@H](Oc2ccc([N+](=O)[O-])cc2)O[C@H](CO)[C@@H](O[C@@H]2O[C@H](CO)[C@@H](O[C@@H]3O[C@H](CO)[C@@H](O)[C@H](O)[C@H]3NC(C)=O)[C@H](O)[C@H]2NC(C)=O)[C@@H]1O.
T1 construct: synthetic gene, codon-optimised, pPICZαA (EcoRI/KpnI), secreted from Pichia pastoris KM71H, purified by Q-Sepharose
Nature of the data set: purified protein. The data set is classed as biochemical, Talaromyces flavus. As to conditions: 50 mM citrate/phosphate pH 5.0, 25 °C, 0.1–6 mM substrate.

TfChit (Talaromyces flavus; S181W), sequence (chain, as listed by the source S181W): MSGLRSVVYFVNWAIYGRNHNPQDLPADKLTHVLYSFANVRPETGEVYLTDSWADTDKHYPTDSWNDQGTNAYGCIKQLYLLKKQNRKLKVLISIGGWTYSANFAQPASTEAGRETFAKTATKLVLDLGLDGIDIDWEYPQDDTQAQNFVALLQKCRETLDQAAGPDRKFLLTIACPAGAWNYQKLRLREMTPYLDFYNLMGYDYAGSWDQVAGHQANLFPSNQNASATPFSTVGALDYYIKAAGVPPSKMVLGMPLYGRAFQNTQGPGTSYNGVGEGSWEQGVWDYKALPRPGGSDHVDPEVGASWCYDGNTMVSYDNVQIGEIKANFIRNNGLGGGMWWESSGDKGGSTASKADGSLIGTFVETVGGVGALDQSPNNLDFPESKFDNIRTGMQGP
TfChit (Talaromyces flavus; F231W), sequence (chain, as listed by the source F231W): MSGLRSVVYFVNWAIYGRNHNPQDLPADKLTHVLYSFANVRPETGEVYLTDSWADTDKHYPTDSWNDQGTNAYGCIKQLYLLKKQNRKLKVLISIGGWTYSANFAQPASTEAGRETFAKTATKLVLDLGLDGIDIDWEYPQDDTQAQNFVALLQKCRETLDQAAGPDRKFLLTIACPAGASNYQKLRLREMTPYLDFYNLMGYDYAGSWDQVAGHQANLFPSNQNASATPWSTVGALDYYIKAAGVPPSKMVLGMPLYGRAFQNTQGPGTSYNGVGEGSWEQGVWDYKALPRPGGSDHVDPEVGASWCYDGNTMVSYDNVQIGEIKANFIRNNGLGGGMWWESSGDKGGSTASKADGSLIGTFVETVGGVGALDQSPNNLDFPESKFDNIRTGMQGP
TfChit (Talaromyces flavus; D136V/S181W/W209A), sequence (chain, as listed by the source D136V S181W W209A): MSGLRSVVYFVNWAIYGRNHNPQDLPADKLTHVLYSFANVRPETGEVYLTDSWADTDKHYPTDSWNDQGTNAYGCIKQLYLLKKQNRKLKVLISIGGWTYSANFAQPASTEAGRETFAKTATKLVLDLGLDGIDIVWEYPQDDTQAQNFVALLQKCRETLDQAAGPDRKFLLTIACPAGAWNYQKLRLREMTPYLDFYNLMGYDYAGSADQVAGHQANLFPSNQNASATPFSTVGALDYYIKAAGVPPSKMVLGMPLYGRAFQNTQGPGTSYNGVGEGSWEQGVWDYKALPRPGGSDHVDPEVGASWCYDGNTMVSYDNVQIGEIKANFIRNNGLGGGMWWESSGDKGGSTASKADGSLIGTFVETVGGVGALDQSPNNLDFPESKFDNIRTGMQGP
TfChit (Talaromyces flavus; S181W/W209A), sequence (chain, as listed by the source S181W W209A): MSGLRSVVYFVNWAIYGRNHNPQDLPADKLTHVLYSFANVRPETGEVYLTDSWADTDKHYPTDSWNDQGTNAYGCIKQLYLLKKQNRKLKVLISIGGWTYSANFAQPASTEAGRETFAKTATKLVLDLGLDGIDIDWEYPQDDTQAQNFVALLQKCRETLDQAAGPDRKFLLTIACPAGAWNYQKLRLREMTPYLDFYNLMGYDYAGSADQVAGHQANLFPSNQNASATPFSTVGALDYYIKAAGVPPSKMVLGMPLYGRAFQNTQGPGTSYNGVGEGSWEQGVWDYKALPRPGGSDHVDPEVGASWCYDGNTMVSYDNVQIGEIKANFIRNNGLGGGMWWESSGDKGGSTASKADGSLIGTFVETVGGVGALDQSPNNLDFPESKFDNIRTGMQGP
TfChit (Talaromyces flavus; D136V/S181W), sequence (chain, as listed by the source D136V S181W): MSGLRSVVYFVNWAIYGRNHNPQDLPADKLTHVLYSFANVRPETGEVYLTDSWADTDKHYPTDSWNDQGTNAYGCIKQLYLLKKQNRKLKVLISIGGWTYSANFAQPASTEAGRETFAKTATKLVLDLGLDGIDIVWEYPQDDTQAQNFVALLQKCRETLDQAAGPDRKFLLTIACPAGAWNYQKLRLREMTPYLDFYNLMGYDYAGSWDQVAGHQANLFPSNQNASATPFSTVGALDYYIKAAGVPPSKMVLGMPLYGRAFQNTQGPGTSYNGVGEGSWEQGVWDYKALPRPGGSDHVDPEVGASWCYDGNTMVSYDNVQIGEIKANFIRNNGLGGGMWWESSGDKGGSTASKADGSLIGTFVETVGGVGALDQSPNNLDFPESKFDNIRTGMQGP
TfChit (Talaromyces flavus), sequence (chain, as listed by the source): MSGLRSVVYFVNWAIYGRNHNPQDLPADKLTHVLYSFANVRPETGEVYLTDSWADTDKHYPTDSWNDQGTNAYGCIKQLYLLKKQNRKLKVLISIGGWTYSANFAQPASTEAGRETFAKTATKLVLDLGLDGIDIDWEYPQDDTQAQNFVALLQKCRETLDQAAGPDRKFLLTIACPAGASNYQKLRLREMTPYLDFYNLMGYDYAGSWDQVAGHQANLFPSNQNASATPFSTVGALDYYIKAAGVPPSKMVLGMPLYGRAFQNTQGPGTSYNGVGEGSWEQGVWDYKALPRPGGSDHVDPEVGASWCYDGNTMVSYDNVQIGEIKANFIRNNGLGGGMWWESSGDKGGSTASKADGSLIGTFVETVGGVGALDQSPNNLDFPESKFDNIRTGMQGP
TfChit (Talaromyces flavus; D136V), sequence (chain, as listed by the source D136V): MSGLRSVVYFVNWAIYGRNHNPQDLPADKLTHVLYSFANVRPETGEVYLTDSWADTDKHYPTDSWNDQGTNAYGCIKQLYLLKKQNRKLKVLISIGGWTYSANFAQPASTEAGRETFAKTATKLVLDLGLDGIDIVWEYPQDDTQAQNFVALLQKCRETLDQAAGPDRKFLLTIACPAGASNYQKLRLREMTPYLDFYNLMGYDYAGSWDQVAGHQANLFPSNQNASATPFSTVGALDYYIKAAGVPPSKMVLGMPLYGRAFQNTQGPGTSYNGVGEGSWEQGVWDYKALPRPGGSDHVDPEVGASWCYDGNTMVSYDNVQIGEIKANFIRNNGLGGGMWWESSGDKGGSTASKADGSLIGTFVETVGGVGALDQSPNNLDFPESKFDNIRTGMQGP
TfChit (Talaromyces flavus; D136V/W209A), sequence (chain, as listed by the source D136V W209A): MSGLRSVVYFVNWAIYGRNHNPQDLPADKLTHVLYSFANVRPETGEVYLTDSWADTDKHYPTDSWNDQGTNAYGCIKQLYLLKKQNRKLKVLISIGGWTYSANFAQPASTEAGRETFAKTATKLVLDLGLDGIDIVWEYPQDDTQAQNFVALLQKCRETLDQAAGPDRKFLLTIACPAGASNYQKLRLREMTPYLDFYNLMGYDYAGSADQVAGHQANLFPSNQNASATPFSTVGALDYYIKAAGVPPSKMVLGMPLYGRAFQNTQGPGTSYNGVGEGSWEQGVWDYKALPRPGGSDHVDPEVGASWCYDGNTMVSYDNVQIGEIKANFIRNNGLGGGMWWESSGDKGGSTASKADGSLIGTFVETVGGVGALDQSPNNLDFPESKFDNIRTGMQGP
TfChit (Talaromyces flavus; F231W/W209A), sequence (chain, as listed by the source F231W W209A): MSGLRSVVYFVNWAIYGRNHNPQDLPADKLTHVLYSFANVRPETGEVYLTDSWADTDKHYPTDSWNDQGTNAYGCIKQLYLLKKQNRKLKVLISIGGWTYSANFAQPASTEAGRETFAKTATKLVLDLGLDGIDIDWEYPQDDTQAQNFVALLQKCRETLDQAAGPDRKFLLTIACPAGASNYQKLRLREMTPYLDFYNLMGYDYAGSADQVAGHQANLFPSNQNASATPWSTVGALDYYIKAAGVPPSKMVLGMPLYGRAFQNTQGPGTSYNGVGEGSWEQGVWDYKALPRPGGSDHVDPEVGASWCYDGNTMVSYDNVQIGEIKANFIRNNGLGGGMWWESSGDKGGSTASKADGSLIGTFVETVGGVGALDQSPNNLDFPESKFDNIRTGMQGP
TfChit (Talaromyces flavus; W209A), sequence (chain, as listed by the source W209A): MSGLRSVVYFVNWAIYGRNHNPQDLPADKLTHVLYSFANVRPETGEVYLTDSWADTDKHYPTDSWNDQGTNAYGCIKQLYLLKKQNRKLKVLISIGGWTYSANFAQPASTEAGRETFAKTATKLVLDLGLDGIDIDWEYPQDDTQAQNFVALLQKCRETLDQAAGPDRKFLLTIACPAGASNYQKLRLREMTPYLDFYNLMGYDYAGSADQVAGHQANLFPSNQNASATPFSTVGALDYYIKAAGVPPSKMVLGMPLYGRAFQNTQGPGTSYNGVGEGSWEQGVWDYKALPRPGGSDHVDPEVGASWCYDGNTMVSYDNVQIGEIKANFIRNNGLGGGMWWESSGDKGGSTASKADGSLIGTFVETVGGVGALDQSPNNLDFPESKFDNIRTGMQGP

One may read the kcat as the maximal rate divided by the concentration of active sites. One may read the kcat/Km as the second-order rate constant that governs catalysis at low substrate concentration. Regarding TfChit (Talaromyces flavus), the Km is 1.2 mmol·L^–1, the kcat was 3.9 s⁻¹ and the kcat/Km was determined as 3300 M⁻¹ s⁻¹.
The like results for TfChit (Talaromyces flavus; D136V) were, in that order, 1.1 mmol·L^–1, 5.3 s⁻¹ and 5000 M⁻¹ s⁻¹.
The like results for “TfChit (Talaromyces flavus; D136V/S181W)” were, in that order, 4.3 mmol·L^–1, 5.3 s⁻¹ and 1200 M⁻¹ s⁻¹.
For “TfChit (Talaromyces flavus; D136V/S181W/W209A)”, in that order: 2.0 mmol·L^–1, 5.6 s⁻¹ and 2800 M⁻¹ s⁻¹.
Take “TfChit (Talaromyces flavus; D136V/W209A)”: the Km worked out at 3.6 mmol·L^–1, the kcat is 8.2 s⁻¹ and the kcat/Km came to 2200 M⁻¹ s⁻¹.
For TfChit (Talaromyces flavus; F231W), in that order: 1.1 mmol·L^–1, 1.9 s⁻¹ and 1800 M⁻¹ s⁻¹.
For “TfChit (Talaromyces flavus; F231W/W209A)”, in that order: 1.3 mmol·L^–1, 4.7 s⁻¹ and 3500 M⁻¹ s⁻¹.
The like results for TfChit (Talaromyces flavus; S181W) were, in that order, 1.5 mmol·L^–1, 6 s⁻¹ and 4000 M⁻¹ s⁻¹.
For the substance “TfChit (Talaromyces flavus; S181W/W209A)”, the Km came to 2.6 mmol·L^–1, the turnover number (kcat) was determined as 3.1 s⁻¹ and the kcat/Km turned out to be 1200 M⁻¹ s⁻¹.
The like results for TfChit (Talaromyces flavus; W209A) were, in that order, 3.3 mmol·L^–1, 6.1 s⁻¹ and 1900 M⁻¹ s⁻¹.
